Assay: Storage stability of P450 enzymes in frozen human liver
Assay type: physicochemical
Settings: human liver at -65 to -90 degrees C, up to six months
Source text: P450 enzymes in frozen liver microsomes appear to be relatively stable.

| Molecule | degradation on storage |
| --- | --- |
| CYP2A6: P450 enzyme in frozen human liver (protein, UniProt P11509 1-494, looked up) Cytochrome P450 2A6: MLASGMLLVALLVCLTVMVLMSVWQQRKSKGKLPPGPTPLPFIGNYLQLNTEQMYNSLMKISERYGPVFTIHLGPRRVVVLCGHDAVREALVDQAEEFSGRGEQATFDWVFKGYGVVFSNGERAKQLRRFSIATLRDFGVGKRGIEERIQEEAGFLIDALRGTGGANIDPTFFLSRTVSNVISSIVFGDRFDYKDKEFLSLLRMMLGIFQFTSTSTGQLYEMFSSVMKHLPGPQQQAFQLLQGLEDFIAKKVEHNQRTLDPNSPRDFIDSFLIRMQEEEKNPNTEFYLKNLVMTTLNLFIGGTETVSTTLRYGFLLLMKHPEVEAKVHEEIDRVIGKNRQPKFEDRAKMPYMEAVIHEIQRFGDVIPMSLARRVKKDTKFRDFFLPKGTEVYPMLGSVLRDPSFFSNPQDFNPQHFLNEKGQFKKSDAFVPFSIGKRNCFGEGLARMELFLFFTTVMQNFRLKSSQSPKDIDVSPKHVGFATIPRNYTMSFLPR | no detectable degradation |
| CYP1A2: P450 enzyme in frozen human liver (protein, UniProt P05177 2-516, looked up) Cytochrome P450 1A2: ALSQSVPFSATELLLASAIFCLVFWVLKGLRPRVPKGLKSPPEPWGWPLLGHVLTLGKNPHLALSRMSQRYGDVLQIRIGSTPVLVLSRLDTIRQALVRQGDDFKGRPDLYTSTLITDGQSLTFSTDSGPVWAARRRLAQNALNTFSIASDPASSSSCYLEEHVSKEAKALISRLQELMAGPGHFDPYNQVVVSVANVIGAMCFGQHFPESSDEMLSLVKNTHEFVETASSGNPLDFFPILRYLPNPALQRFKAFNQRFLWFLQKTVQEHYQDFDKNSVRDITGALFKHSKKGPRASGNLIPQEKIVNLVNDIFGAGFDTVTTAISWSLMYLVTKPEIQRKIQKELDTVIGRERRPRLSDRPQLPYLEAFILETFRHSSFLPFTIPHSTTRDTTLNGFYIPKKCCVFVNQWQVNHDPELWEDPSEFRPERFLTADGTAINKPLSEKMMLFGMGKRRCIGEVLAKWEIFLFLAILLQQLEFSVPPGVKVDLTPIYGLTMKHARCEHVQARLRFSIN | no detectable degradation |
| CYP2E1: P450 enzyme in frozen human liver (protein, UniProt P05181 1-493, looked up) Cytochrome P450 2E1: MSALGVTVALLVWAAFLLLVSMWRQVHSSWNLPPGPFPLPIIGNLFQLELKNIPKSFTRLAQRFGPVFTLYVGSQRMVVMHGYKAVKEALLDYKDEFSGRGDLPAFHAHRDRGIIFNNGPTWKDIRRFSLTTLRNYGMGKQGNESRIQREAHFLLEALRKTQGQPFDPTFLIGCAPCNVIADILFRKHFDYNDEKFLRLMYLFNENFHLLSTPWLQLYNNFPSFLHYLPGSHRKVIKNVAEVKEYVSERVKEHHQSLDPNCPRDLTDCLLVEMEKEKHSAERLYTMDGITVTVADLFFAGTETTSTTLRYGLLILMKYPEIEEKLHEEIDRVIGPSRIPAIKDRQEMPYMDAVVHEIQRFITLVPSNLPHEATRDTIFRGYLIPKGTVVVPTLDSVLYDNQEFPDPEKFKPEHFLNENGKFKYSDYFKPFSTGKRVCAGEGLARMELFLLLCAILQHFNLKPLVDPKDIDLSPIHIGFGCIPPRYKLCVIPRS | no detectable degradation |
| CYP2D6: P450 enzyme in frozen human liver (protein, UniProt P10635 1-497, looked up) Cytochrome P450 2D6: MGLEALVPLAVIVAIFLLLVDLMHRRQRWAARYPPGPLPLPGLGNLLHVDFQNTPYCFDQLRRRFGDVFSLQLAWTPVVVLNGLAAVREALVTHGEDTADRPPVPITQILGFGPRSQGVFLARYGPAWREQRRFSVSTLRNLGLGKKSLEQWVTEEAACLCAAFANHSGRPFRPNGLLDKAVSNVIASLTCGRRFEYDDPRFLRLLDLAQEGLKEESGFLREVLNAVPVLLHIPALAGKVLRFQKAFLTQLDELLTEHRMTWDPAQPPRDLTEAFLAEMEKAKGNPESSFNDENLRIVVADLFSAGMVTTSTTLAWGLLLMILHPDVQRRVQQEIDDVIGQVRRPEMGDQAHMPYTTAVIHEVQRFGDIVPLGVTHMTSRDIEVQGFRIPKGTTLITNLSSVLKDEAVWEKPFRFHPEHFLDAQGHFVKPEAFLPFSAGRRACLGEPLARMELFLFFTSLLQHFSFSVPTGQPRPSHHGVFAFLVSPSPYELCAVPR | no detectable degradation |
